We go through 94 variants from the supplement of paper PMC10567573.

The labels stand for the following.
B1: PRPH (parent)
chain: DEIEFLKKLHEEELRDLQVSVESQ
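Also: lentivirally expressed fusions sorted by FACS into six bins by GFP to DsRed ratio, PSI derived from sequencing read proportions per bin multiplied by bin number.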

This data set covers variants of B1. Kind of data set: protein stability index of a GFP-peptide fusion (GPS, HEK-293T) (PSI 1-6); higher = more stable. The note with it: c terminus: a fixed tail appended.
For DEIEFLKKLHEEELRDLQVSMESQ [V21M], the protein stability index was 4.45.

DEIEFLKKLHEEELRDLQVSAESQ [V21A]: the protein stability index came to 5.45.

Take DEIEFLKKLHEEELRDLQVSDESQ [V21D]: the protein stability index came out at 5.43.

In the case of DEIEFLKKLHEEELRDLQVSHESQ [V21H], the protein stability index came to 5.09.

Turning to DEIEFLKKLHEEELRDLQVSIESQ [V21I], the protein stability index came out at 4.13.

Consider DEIEFLKKLHEEELRDLQVSEESQ [V21E], for which the protein stability index was determined as 5.81.

Turning to DEIEFLKKLHEEELRDLQVSGESQ [V21G], the protein stability index worked out at 4.92.

In the case of DEIEFLKKLHEEELRDLQVSLESQ [V21L], the protein stability index was determined as 4.71.

For DEIEFLKKLHEEELRDLQVSKESQ [V21K], the protein stability index stood at 5.06.

Take DEIEFLKKLHEEELRDLQVSFESQ [V21F]: the protein stability index came to 4.43.

Regarding DEIEFLKKLHEEELRDLQVSNESQ [V21N], the protein stability index amounted to 5.29.

Turning to DEIEFLKKLHEEELRDLQVSCESQ [V21C], the protein stability index was 4.98.

In the case of DEIEFLKKLHEEELRDLQVTVESQ [S20T], the protein stability index is 4.87.

Consider DEIEFLKKLHEEELRDLQVNVESQ [S20N], for which the protein stability index amounted to 4.83.

Regarding DEIEFLKKLHEEELRDLQVRVESQ [S20R], the protein stability index was 5.1.

On to DEIEFLKKLHEEELRDLQVFVESQ [S20F], for which the protein stability index is 3.97.

On to DEIEFLKKLHEEELRDLQVWVESQ [S20W], for which the protein stability index was found to be 4.45.

For DEIEFLKKLHEEELRDLQVIVESQ [S20I], the protein stability index was determined as 4.27.

DEIEFLKKLHEEELRDLQVHVESQ [S20H]: the protein stability index was 4.91.

For DEIEFLKKLHEEELRDLQVLVESQ [S20L], the protein stability index stood at 4.2.

For DEIEFLKKLHEEELRDLQVMVESQ [S20M], the protein stability index came out at 4.81.

For DEIEFLKKLHEEELRDLQVAVESQ [S20A], the protein stability index was found to be 4.78.

DEIEFLKKLHEEELRDLQVKVESQ [S20K]: the protein stability index stood at 4.75.

Regarding DEIEFLKKLHEEELRDLQVGVESQ [S20G], the protein stability index was found to be 4.29.

As for DEIEFLKKLHEEELRDLQVPVESQ [S20P], the protein stability index was 4.96.

As for DEIEFLKKLHEEELRDLQVQVESQ [S20Q], the protein stability index is 4.86.

As for DEIEFLKKLHEEELRDLQVDVESQ [S20D], the protein stability index worked out at 4.54.

Regarding DEIEFLKKLHEEELRDLQVCVESQ [S20C], the protein stability index was 5.06.

With DEIEFLKKLHEEELRDLQVYVESQ [S20Y], the protein stability index was 4.45.

Take DEIEFLKKLHEEELRDLQVEVESQ [S20E]: the protein stability index was 5.75.

As to DEIEFLKKLHEEELRDLQVVVESQ [S20V], the protein stability index was 4.88.

Consider DEIEFLKKLHEEELEDLQVSVESQ [R15E], for which the protein stability index was determined as 4.83.

On to DEIEFLKKLHEEELHDLQVSVESQ [R15H], for which the protein stability index worked out at 4.39.

As for DEIEFLKKLHEEELPDLQVSVESQ [R15P], the protein stability index turned out to be 4.98.

With DEIEFLKKLHEEELWDLQVSVESQ [R15W], the protein stability index came to 3.91.

For the variant DEIEFLKKLHEEELTDLQVSVESQ [R15T], the protein stability index turned out to be 4.51.

In the case of DEIEFLKKLHEEELGDLQVSVESQ [R15G], the protein stability index worked out at 4.28.

In the case of DEIEFLKKLHEEELDDLQVSVESQ [R15D], the protein stability index stood at 5.45.

Turning to DEIEFLKKLHEEELIDLQVSVESQ [R15I], the protein stability index was determined as 4.79.

For DEIEFLKKLHEEELFDLQVSVESQ [R15F], the protein stability index worked out at 4.15.

DEIEFLKKLHEEELADLQVSVESQ [R15A]: the protein stability index was found to be 5.18.

Take DEIEFLKKLHEEELCDLQVSVESQ [R15C]: the protein stability index turned out to be 4.53.

Turning to DEIEFLKKLHEEELKDLQVSVESQ [R15K], the protein stability index is 4.59.

For DEIEFLKKLHEEELLDLQVSVESQ [R15L], the protein stability index is 4.38.

In the case of DEIEFLKKLHEEELSDLQVSVESQ [R15S], the protein stability index stood at 4.8.

For the variant DEIEFLKKLHEEELYDLQVSVESQ [R15Y], the protein stability index stood at 4.58.

On to DEIEFLKKLHEEELVDLQVSVESQ [R15V], for which the protein stability index was found to be 4.94.

For the variant DEIEFLKKLHEEELNDLQVSVESQ [R15N], the protein stability index turned out to be 4.91.

DEIEFLKKLHEEELMDLQVSVESQ [R15M]: the protein stability index is 4.58.

With DEIEFLKKLHEEELQDLQVSVESQ [R15Q], the protein stability index came to 4.66.

Take DEIEFLKKLHEEELRILQVSVESQ [D16I]: the protein stability index amounted to 3.82.

Take DEIEFLKKLHEEELRGLQVSVESQ [D16G]: the protein stability index amounted to 4.95.

With DEIEFLKKLHEEELRNLQVSVESQ [D16N], the protein stability index came out at 4.2.

In the case of DEIEFLKKLHEEELRCLQVSVESQ [D16C], the protein stability index was 4.28.

Consider DEIEFLKKLHEEELRMLQVSVESQ [D16M], for which the protein stability index was determined as 3.9.

Take DEIEFLKKLHEEELRTLQVSVESQ [D16T]: the protein stability index stood at 4.72.

On to DEIEFLKKLHEEELRRLQVSVESQ [D16R], for which the protein stability index was 3.96.

Consider DEIEFLKKLHEEELRWLQVSVESQ [D16W], for which the protein stability index was 3.15.

In the case of DEIEFLKKLHEEELRYLQVSVESQ [D16Y], the protein stability index stood at 3.49.

DEIEFLKKLHEEELRPLQVSVESQ [D16P]: the protein stability index was 4.59.

As for DEIEFLKKLHEEELRSLQVSVESQ [D16S], the protein stability index stood at 5.14.

In the case of DEIEFLKKLHEEELRELQVSVESQ [D16E], the protein stability index is 4.31.

On to DEIEFLKKLHEEELRKLQVSVESQ [D16K], for which the protein stability index worked out at 4.94.

DEIEFLKKLHEEELRVLQVSVESQ [D16V]: the protein stability index was 4.34.

In the case of DEIEFLKKLHEEELRQLQVSVESQ [D16Q], the protein stability index amounted to 4.35.

Turning to DEIEFLKKLHEEELRFLQVSVESQ [D16F], the protein stability index amounted to 3.1.

For DEIEFLKKLHEEELRALQVSVESQ [D16A], the protein stability index came to 4.6.

With DEIEFLKKLHEEELRLLQVSVESQ [D16L], the protein stability index stood at 2.97.

For the variant DEIEFLKKLHEEELRHLQVSVESQ [D16H], the protein stability index was 4.67.

As to DEIEFLKKLHEEELRDEQVSVESQ [L17E], the protein stability index came out at 4.98.

With DEIEFLKKLHEEELRDYQVSVESQ [L17Y], the protein stability index amounted to 3.39.

As to DEIEFLKKLHEEELRDDQVSVESQ [L17D], the protein stability index was found to be 5.25.

With DEIEFLKKLHEEELRDCQVSVESQ [L17C], the protein stability index turned out to be 4.92.

DEIEFLKKLHEEELRDIQVSVESQ [L17I]: the protein stability index came to 4.97.

On to DEIEFLKKLHEEELRDTQVSVESQ [L17T], for which the protein stability index came out at 5.06.

On to DEIEFLKKLHEEELRDHQVSVESQ [L17H], for which the protein stability index was 4.6.

DEIEFLKKLHEEELRDWQVSVESQ [L17W]: the protein stability index worked out at 4.8.

As to DEIEFLKKLHEEELRDQQVSVESQ [L17Q], the protein stability index came out at 5.15.

On to DEIEFLKKLHEEELRDSQVSVESQ [L17S], for which the protein stability index is 4.9.

On to DEIEFLKKLHEEELRDRQVSVESQ [L17R], for which the protein stability index stood at 5.06.

As to DEIEFLKKLHEEELRDPQVSVESQ [L17P], the protein stability index was determined as 5.16.

DEIEFLKKLHEEELRDKQVSVESQ [L17K]: the protein stability index was 4.81.

DEIEFLKKLHEEELRDAQVSVESQ [L17A]: the protein stability index came out at 5.15.

As to DEIEFLKKLHEEELRDFQVSVESQ [L17F], the protein stability index was found to be 4.69.

As for DEIEFLKKLHEEELRDVQVSVESQ [L17V], the protein stability index amounted to 5.02.

On to DEIEFLKKLHEEELRDMQVSVESQ [L17M], for which the protein stability index is 4.97.

As for DEIEFLKKLHEEELRDGQVSVESQ [L17G], the protein stability index worked out at 5.21.

As for DEIEFLKKLHEEELRDNQVSVESQ [L17N], the protein stability index worked out at 4.45.

As to DEIEFLKKLHELELRDLQVSVESQ [E12L], the protein stability index was determined as 4.04.

On to DEIEFLKKLHEDELRDLQVSVESQ [E12D], for which the protein stability index came out at 4.41.

In the case of DEIEFLKKLHEKELRDLQVSVESQ [E12K], the protein stability index was found to be 4.82.

Consider DEIEFLKKLHEVELRDLQVSVESQ [E12V], for which the protein stability index was 4.1.

On to DEIEFLKKLHESELRDLQVSVESQ [E12S], for which the protein stability index turned out to be 4.67.

For the variant DEIEFLKKLHENELRDLQVSVESQ [E12N], the protein stability index was 4.5.
